Usually Kd stands for a measure of binding affinity in units of concentration. The low end stands for higher affinity, the high end for lower affinity. Usually koff stands for the rate constant with which the complex falls apart. A high value points to fast dissociation. The kon is the second-order rate constant of association. Low readings indicate slow association, high ones fast association.

Results on 1 substance are retold here after publication PMC10663500.

This assay concerns the target toripalimab Fab, wild type. The assay is described as follows: SPR; Carterra LSA; Fab from the ammonium sulfate precipitate of the culture supernatant immobilised on a NiHC200M chip; hPD-1 (1-1024 nM) or mPD-1-Fc (4-1024 nM) as analyte, fourfold dilution series, no regeneration; HBS-EP pH 7.4, 25 °C; medians over the spots of a construct, KD = koff/kon. Background: Surface plasmon resonance follows binding to a sensor surface in real time, without labels.

toripalimab Fab, wild type, sequence (heavy, as listed by the source, chain 1 of 2): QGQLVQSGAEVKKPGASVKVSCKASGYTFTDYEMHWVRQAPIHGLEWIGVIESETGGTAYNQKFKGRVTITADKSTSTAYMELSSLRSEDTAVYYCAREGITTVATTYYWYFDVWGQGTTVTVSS
toripalimab Fab, wild type, sequence (light, as listed by the source, chain 2 of 2): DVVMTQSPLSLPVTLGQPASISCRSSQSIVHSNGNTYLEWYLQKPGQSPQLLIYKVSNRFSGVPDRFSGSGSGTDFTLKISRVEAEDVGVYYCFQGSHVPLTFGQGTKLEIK
mouse programmed cell death protein 1 Fc fusion protein (mPD-1-Fc), mPD-1 C60S (aa 25-167), sequence (Q02242 25-167, stated change not applied): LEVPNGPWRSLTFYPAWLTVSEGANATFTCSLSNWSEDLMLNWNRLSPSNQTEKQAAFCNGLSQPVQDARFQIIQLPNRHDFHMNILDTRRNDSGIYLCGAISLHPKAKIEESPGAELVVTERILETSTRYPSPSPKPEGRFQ

“mouse programmed cell death protein 1 Fc fusion protein (mPD-1-Fc), mPD-1 C60S (aa 25-167) (from UniProt Q02242 25-167)” had a Kd of 0.136 µM, a koff of 0.00548 s⁻¹ and a kon of 40300 M⁻¹ s⁻¹.
